Assays:
[1] = target: T1, Drosophila HSF expressed in Xenopus oocytes (Drosophila melanogaster) (UniProt P22813); assay: EMSA; settings: oocytes 36 C 10 min vs 18 C
T1 sequence: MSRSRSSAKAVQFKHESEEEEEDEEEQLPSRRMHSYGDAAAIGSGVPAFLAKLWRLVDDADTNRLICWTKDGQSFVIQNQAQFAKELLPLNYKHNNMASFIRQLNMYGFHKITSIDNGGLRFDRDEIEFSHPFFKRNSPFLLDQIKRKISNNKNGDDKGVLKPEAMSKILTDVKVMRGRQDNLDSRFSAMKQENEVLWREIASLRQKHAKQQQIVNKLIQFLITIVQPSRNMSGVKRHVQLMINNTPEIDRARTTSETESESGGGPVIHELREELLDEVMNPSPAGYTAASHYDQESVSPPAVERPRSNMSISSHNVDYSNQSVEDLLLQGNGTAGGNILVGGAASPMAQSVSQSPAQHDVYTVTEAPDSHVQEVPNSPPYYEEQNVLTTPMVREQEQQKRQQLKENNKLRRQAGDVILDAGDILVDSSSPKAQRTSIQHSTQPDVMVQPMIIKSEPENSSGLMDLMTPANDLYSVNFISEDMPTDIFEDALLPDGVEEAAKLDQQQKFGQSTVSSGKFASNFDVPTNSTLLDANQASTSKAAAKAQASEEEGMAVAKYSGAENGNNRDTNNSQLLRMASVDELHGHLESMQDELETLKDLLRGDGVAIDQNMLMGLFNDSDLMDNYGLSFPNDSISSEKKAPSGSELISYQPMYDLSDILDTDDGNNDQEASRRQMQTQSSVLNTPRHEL

[2] = target: T2, Drosophila HSF full length (pHSF WT) (Drosophila melanogaster) (UniProt P22813); settings: in vitro transcription, Drosophila embryo extract; scale: fold transcription vs template lacking HSEs
T2 sequence: T1 sequence

[3] = target: human HSF (HuHSF) (Homo sapiens) (UniProt Q00613); settings: in vitro transcription, Drosophila embryo extract
[4] = target: the molecule itself; assay: self-association: pore exclusion limit electrophoresis on a nondenaturing gradient gel, purified HSF from E. coli
Procedure: The gel was stained with Coomassie Blue. […] (B) Pore exclusion limit analysis of the HSF:^32P-HSE complex. 3 µl of Drosophila SL-2 cell cytosol (lanes 1,2) and 0.5 µl of an extract *E. coli* expressing HSF (lanes 3,4) were heat shocked (+) in vitro at 34° C. or incubated at 0° C. (−) for 10 min. The samples were incubated for 10 min with ^32P-labeled HSE tinder standard gel shift conditions, and electrophoresed on a nondenaturing, 3–12% polyacrylamide gradient gel until the limit of migration. The gel was stained with Coomassie Blue, dried and subjected to autoradiography. The positions of marker proteins are indicated. (C) Glutaraldehyde cross-linking of cloned HSF. Purified HSF (2 µg/10 µl) was treated for 5 min at room temperature with glutaraldehyde as indicated. After quenching, about 1 µg of cross-linked HSF was separated on a 4–6% SDS polyacrylamide gel, and silver stained. The minor polypeptides below the 105 kD HSF protein probably represent degradation products. […] Cross-linked products were analyzed by SDS gel electrophoresis as above.
EXAMPLE 5 Recombinant Drosophila HSF Expressed in *E. coli*. Associates as a Hexamer in Solution The apparent molecular mass of recombinant HSF, purified from *E. coli* extracts, was determined to be about 105 KD by SDS polyacrylamide gel electrophoresis (see FIG. 6).

Drosophila HSF 1-241 = target: T3, Drosophila HSF 1-241 (Drosophila melanogaster, UniProt P22813 SEQ:1-241); assay: footprint; settings: tags: E. coli BL21(DE3) extract; label: 32P 5' end
T3 chain: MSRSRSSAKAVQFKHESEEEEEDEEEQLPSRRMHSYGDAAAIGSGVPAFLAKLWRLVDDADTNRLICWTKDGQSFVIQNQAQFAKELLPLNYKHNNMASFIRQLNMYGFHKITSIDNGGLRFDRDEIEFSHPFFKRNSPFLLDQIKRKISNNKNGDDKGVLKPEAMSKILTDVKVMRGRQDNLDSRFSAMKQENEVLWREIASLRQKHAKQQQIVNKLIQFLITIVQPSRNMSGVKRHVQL
From the text: (§1) Figure 7A: FIGS. 7A, 7B, and 7C represent the deletion analysis of HSF. (A) Schematic drawing of full-length HSF open reading frame (pHSF WT) and three deletion mutants PHSF 1-367, 1-241, and 1-163. All numbers refer to amino acid positions. The open bars represent HSF coding sequences; the shaded regions A–D represent sequences conserved between Drosophila and yeast HSF. The solid boxes indicate the φ10 promoter (T_7), the Shine-Delgarno (SD) sequence, and the transcription terminator (T) of the expression vector. (B) SDS polyacrylamide gel analysis of wild-type and mutant HSF polypeptides. Mutants were expressed in BL21 (DE3) in the presence of ^35S-methionine (20 µCi/ml). 0.1 ml of culture was precipitated and the pellet was denatured at 100° C. in 10 µl of Laemmli sample buffer. Samples were electrophoresed on a 15% polyacrylamide gel and visualized by fluorography. The arrows pointing left indicate HSF polypeptides. A 26 kD protein (arrowhead) was also labeled in all samples, including *E. coli* transformed with the expression vector alone. (C) DNase I protection analysis of HSF mutants. A labeled fragment from the hsp70 promoter was incubated with the indicated amounts of wild-type or mutant HSF proteins. Footprinting reactions were performed essentially as described in FIG. 3C. Figure 7B: Figure 7C: […]

Drosophila HSF 1-367 = target: T4, Drosophila HSF 1-367 (Drosophila melanogaster, UniProt P22813 SEQ:1-367); assay: footprint; settings: tags: E. coli BL21(DE3) extract; label: 32P 5' end
T4 chain: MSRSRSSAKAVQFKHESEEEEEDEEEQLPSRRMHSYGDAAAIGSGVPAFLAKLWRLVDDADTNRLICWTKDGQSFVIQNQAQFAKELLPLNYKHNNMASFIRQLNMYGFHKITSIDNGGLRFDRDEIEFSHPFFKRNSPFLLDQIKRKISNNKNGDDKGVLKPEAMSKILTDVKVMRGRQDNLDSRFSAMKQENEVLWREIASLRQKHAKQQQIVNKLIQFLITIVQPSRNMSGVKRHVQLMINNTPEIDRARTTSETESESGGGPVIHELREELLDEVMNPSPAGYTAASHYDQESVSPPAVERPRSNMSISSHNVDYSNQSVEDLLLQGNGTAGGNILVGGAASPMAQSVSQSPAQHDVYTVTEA
From the text: as §1

Drosophila HSF 1-163 = target: T5, Drosophila HSF 1-163 (Drosophila melanogaster, UniProt P22813 SEQ:1-163); assay: footprint; estimated from protein concentration for about 50% binding; settings: tags: E. coli BL21(DE3) extract; label: 32P 5' end
T5 chain: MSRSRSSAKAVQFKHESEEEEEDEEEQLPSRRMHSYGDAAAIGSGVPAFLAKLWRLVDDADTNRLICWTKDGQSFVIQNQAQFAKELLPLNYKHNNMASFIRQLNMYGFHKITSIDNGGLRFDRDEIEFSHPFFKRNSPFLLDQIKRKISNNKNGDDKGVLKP
Procedure: as §1, with “All” for “Figure 7A: FIGS. 7A, 7B, and 7C represent the deletion analysis of HSF. (A) Schematic drawing of full-length HSF open reading frame (pHSF WT) and three deletion mutants PHSF 1-367, 1-241, and 1-163. All”

Chain of human HSF (HuHSF) (Homo sapiens) (Q00613 whole entry): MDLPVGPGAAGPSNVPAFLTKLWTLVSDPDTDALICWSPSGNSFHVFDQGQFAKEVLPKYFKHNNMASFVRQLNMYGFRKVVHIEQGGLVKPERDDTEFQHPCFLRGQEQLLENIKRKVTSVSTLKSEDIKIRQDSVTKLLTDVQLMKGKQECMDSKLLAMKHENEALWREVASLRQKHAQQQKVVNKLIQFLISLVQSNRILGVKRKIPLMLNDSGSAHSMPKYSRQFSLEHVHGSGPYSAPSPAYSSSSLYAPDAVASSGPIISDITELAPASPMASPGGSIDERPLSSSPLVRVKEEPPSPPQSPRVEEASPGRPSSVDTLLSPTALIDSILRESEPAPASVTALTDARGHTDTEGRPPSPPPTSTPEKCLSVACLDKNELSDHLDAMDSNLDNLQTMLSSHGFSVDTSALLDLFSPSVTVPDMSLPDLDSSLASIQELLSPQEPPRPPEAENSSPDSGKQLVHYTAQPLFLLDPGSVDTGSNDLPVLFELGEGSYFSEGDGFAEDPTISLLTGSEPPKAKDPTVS

synthetic HSE with three -GAA- repeats in alternating orientation
binding signal (fold increase on heat shock) [1]: 5

phsp70(-50)HSE2 template
activity [2]: 7 | activity (fold transcription stimulation) [3]: 6

B1: recombinant Drosophila heat shock factor (HSF), full-length, expressed in E. coli (pHSFWT) or translated in vitro in rabbit reticulocyte lysate (other)
chain: T1 sequence
binding result [4]: binds

B2: hsp70 promoter (-100 to +10 printed) (dsDNA)
DNA 1: AAACGGCACACTGTTCTCGTTGCTTCGAGAGAGCGCGCCTCGAATGTTCGCGAAAAGAGCGCCGGAGTATAAATAGAGGCGCTTCGTCGACGGAGCGTCAATTCAATTCA
DNA 2: TGAATTGAATTGACGCTCCGTCGACGAAGCGCCTCTATTTATACTCCGGCGCTCTTTTCGCGAACATTCGAGGCGCGCTCTCTCGAAGCAACGAGAACAGTGTGCCGTTT
binding signal (Drosophila HSF 1-241): ≤ 2 fold difference vs full length | binding signal (Drosophila HSF 1-367): ≤ 2 fold difference vs full length | binding signal (Drosophila HSF 1-163): 50 fold lower affinity vs full length

From US5756343, “Cell stress transcriptional factors” (The United States of America as represented by the …, dated 1992)
